Results: article doi:10.1101/2022.11.15.516577 (bioRxiv, 2022)
Read-outs that look alike come from different tables or passages of the source.

Key:
Test in all cases: single-molecule TIRF colocalisation with deconvolution of colocalisation times
[1] = biological target: T1, N-terminally SNAP-tagged human β2-adrenergic receptor (SNAP-β2AR) (human, UniProt P07550 1-413, SNAP-Surface Alexa Fluor 647 on the SNAP-tag)
[2] = biological target: T1, N-terminally SNAP-tagged human …; remark: listed apart in the source
[3] = biological target: T1, N-terminally SNAP-tagged human …; remark: listed apart in the source

B1: C-terminally Halo-tagged bovine β-arrestin 2 (βArr2-Halo) (natural protein)
chain: MGEKPGTRVFKKSSPNCKLTVYLGKRDFVDHLDKVDPVDGVVLVDPDYLKDRKVFVTLTCAFRYGREDLDVLGLSFRKDLFIANYQAFPPTPNPPRPPTRLQERLLRKLGQHAHPFFFTIPQNLPCSVTLQPGPEDTGKACGVDFEIRAFCAKSLEEKSHKRNSVRLVIRKVQFAPEKPGPQPSAETTRHFLMSDRSLHLEASLDKELYYHGEPLNVNVHVTNNSTKTVKKIKVSVRQYADICLFSTAQYKCPVAQVEQDDQVSPSSTFCKVYTITPLLSNNREKRGLALDGKLKHEDTNLASSTIVKEGANKEVLGILVSYRVKVKLVVSRGGDVSVELPFVLMHPKPHDHIALPRPQSAAPETDAPVDTNLIEFETNYATDDDIVFEDFARLRLKGLKDEDYDDQFC
modifications: Halo-JF549 on the Halo-tag (single-molecule microscopy); Halo-R110 on the Halo-tag (BRET)
- koff [1]: 1.34 s⁻¹
- fold increase in kon versus basal [2]: ~1.8 fold
- fold increase in kon versus basal [3]: ~1.4 fold
